Measured values taken from PMC9482650, “Quantitative fragmentomics allow affinity mapping of interactomes” (Nature Communications, 2022).

T1: PCLO, Q9Y6V0
T1 sequence (Q9Y6V0 4491-4600, limits assumed, looked up): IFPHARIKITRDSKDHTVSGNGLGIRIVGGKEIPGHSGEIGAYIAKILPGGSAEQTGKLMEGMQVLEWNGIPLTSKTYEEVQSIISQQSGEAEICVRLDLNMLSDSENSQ

T2: MPP7, Q5T2T1
T2 sequence (Q5T2T1 134-230, limits assumed, looked up): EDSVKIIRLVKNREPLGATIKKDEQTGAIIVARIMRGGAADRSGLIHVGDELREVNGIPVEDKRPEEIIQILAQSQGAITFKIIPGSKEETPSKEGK

T3: SNTG2, Q9NY99
T3 sequence (Q9NY99 68-166, limits assumed, looked up): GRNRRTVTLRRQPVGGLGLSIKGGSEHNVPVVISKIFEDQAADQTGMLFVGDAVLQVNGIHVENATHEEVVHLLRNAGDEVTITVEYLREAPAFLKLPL

T4: SYNJ2BP, P57105
T4 sequence (P57105 8-110, limits assumed, looked up): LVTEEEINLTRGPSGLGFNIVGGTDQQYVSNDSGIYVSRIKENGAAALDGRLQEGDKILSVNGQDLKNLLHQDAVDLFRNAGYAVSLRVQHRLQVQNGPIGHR

T5: SNTA1, Q13424
T5 sequence (Q13424 82-180, limits assumed, looked up): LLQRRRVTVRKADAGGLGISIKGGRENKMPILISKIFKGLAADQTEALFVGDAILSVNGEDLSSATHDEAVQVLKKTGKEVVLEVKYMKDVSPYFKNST

T6: HTRA3, P83110
T6 sequence (P83110 354-453, limits assumed, looked up): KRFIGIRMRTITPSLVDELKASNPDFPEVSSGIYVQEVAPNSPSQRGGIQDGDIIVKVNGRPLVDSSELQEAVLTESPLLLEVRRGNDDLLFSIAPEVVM

T7: SNTG1, Q9NSN8
T7 sequence (Q9NSN8 52-150, limits assumed, looked up): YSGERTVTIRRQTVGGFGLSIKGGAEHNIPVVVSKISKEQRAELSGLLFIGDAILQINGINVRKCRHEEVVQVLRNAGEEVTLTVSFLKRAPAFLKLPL

T8: HTRA4, P83105
T8 sequence (P83105 378-476, limits assumed, looked up): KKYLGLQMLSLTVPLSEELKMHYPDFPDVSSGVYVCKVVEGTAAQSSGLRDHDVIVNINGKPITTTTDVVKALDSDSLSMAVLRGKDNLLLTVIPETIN

T9: LNX2_3, Q8N448
T9 sequence (Q8N448 463-564, limits assumed, looked up): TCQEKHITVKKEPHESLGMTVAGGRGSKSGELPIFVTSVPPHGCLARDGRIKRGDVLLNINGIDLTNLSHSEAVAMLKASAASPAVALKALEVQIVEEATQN

T10: ARHGEF11, O15085
T10 sequence (O15085 42-136, limits assumed, looked up): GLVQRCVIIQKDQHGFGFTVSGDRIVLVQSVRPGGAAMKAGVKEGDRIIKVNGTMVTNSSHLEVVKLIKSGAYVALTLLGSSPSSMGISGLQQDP

T11: SIPA1L2, Q9P2F8
T11 sequence (Q9P2F8 945-1036, limits assumed, looked up): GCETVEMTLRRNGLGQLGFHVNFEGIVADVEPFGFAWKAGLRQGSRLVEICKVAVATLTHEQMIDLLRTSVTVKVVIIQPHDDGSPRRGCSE

T12: PARD3B_1, Q8TEW8
T12 sequence (Q8TEW8 196-299, limits assumed, looked up): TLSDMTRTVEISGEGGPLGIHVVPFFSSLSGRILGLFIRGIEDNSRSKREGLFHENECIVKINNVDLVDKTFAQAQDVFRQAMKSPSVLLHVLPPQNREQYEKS

B1: FLVCR1, Q9Y5Y0 (peptide)
chain: MLSKQSESAI
B2: SLC2A7, Q6PXP3 (peptide)
chain: TASPAKETSF
B3: GHRHR, Q02643 (peptide)
chain: SAAKVLTSMC
B4: ADAM22, Q9P0K1 (peptide)
chain: QSARLWETSI

Assays:
Test in all cases: holdup assay
Parameters in all cases: key: below the threshold = too weak to quantify, mostly under pKd 3.1 to 4
Conditions in all cases: plain residues with an end cap or a label only (N-terminal biotin on a linker: ado-ado)
PCLO, Q9Y6V0 = target: T1, PCLO, Q9Y6V0
MPP7, Q5T2T1 = target: T2, MPP7, Q5T2T1
NOS1, P29475 = target: NOS1, P29475
SNTG2, Q9NY99 = target: T3, SNTG2, Q9NY99
SYNJ2BP, P57105 = target: T4, SYNJ2BP, P57105
MAGI2_5, Q86UL8 = target: MAGI2_5, Q86UL8
Inadl_3, Q8NI35 = target: Inadl_3, Q8NI35
SNTA1, Q13424 = target: T5, SNTA1, Q13424
HTRA3, P83110 = target: T6, HTRA3, P83110
TJP1_2, Q07157 = target: TJP1_2, Q07157
Inadl_9, Q8NI35 = target: Inadl_9, Q8NI35
SCRIB_2, Q14160 = target: SCRIB_2, Q14160
PARD3_3, Q8TEW0 = target: PARD3_3, Q8TEW0
MAST1, Q9Y2H9 = target: MAST1, Q9Y2H9
SNTG1, Q9NSN8 = target: T7, SNTG1, Q9NSN8
HTRA4, P83105 = target: T8, HTRA4, P83105
LNX2_3, Q8N448 = target: T9, LNX2_3, Q8N448
ARHGEF11, O15085 = target: T10, ARHGEF11, O15085
NHERF4_1, Q86UT5-2 = target: NHERF4_1, Q86UT5-2
ARHGEF12, Q9NZN5-2 = target: ARHGEF12, Q9NZN5-2
SIPA1L2, Q9P2F8 = target: T11, SIPA1L2, Q9P2F8
DLG2_2, Q15700 = target: DLG2_2, Q15700
Inadl_4, Q8NI35 = target: Inadl_4, Q8NI35
IL16_1, Q14005 = target: IL16_1, Q14005
PARD3B_1, Q8TEW8 = target: T12, PARD3B_1, Q8TEW8
NHERF2_2, Q15599 = target: NHERF2_2, Q15599
Chain of NHERF2_2, Q15599 (Q15599 142-238): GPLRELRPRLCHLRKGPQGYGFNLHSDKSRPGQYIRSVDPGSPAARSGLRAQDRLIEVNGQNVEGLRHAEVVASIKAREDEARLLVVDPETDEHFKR

Chain of ARHGEF12, Q9NZN5-2 (Q9NZN5 other isoform, or with tags, fused parts or gaps): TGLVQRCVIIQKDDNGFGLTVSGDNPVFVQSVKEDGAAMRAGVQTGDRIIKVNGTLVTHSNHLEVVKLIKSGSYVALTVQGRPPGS
Chain of PARD3_3, Q8TEW0 (Q8TEW0 582-685): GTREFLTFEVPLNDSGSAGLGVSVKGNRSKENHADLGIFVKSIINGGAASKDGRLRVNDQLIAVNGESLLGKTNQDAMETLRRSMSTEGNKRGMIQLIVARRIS
Chain of Inadl_4, Q8NI35 (Q8NI35 547-651): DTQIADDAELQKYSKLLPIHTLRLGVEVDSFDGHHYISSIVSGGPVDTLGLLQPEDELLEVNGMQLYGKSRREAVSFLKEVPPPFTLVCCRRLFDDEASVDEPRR
Chain of Inadl_9, Q8NI35 (Q8NI35 1530-1615): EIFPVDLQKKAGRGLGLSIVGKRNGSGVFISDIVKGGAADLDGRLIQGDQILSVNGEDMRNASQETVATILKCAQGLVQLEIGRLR
Chain of Inadl_3, Q8NI35 (Q8NI35 359-469): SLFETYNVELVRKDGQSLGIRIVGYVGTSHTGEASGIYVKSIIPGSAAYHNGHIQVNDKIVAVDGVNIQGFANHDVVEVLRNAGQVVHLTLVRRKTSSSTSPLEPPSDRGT
Chain of SCRIB_2, Q14160 (Q14160 857-960): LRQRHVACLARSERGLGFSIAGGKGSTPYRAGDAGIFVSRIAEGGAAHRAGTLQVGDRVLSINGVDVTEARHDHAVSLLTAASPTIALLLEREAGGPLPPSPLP
Chain of TJP1_2, Q07157 (Q07157 181-274): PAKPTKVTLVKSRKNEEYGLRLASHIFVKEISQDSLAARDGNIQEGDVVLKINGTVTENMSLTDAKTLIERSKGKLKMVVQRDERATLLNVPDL
Chain of MAST1, Q9Y2H9 (Q9Y2H9 962-1065): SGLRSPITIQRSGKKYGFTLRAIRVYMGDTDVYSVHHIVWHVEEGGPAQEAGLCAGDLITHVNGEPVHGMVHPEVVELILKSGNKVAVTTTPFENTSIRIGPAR
Chain of DLG2_2, Q15700 (Q15700 189-283): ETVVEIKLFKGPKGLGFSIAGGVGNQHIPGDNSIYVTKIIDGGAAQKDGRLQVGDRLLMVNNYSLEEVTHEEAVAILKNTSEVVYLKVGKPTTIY
Chain of NHERF4_1, Q86UT5-2 (Q86UT5 other isoform, or with tags, fused parts or gaps): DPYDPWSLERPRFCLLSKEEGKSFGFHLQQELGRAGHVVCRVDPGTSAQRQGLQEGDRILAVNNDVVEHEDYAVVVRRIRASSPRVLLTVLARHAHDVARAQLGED
Chain of MAGI2_5, Q86UL8 (Q86UL8 915-1017): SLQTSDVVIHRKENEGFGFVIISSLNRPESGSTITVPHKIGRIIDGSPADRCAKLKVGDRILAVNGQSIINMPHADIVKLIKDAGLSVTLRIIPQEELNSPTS
Chain of NOS1, P29475 (P29475 9-101): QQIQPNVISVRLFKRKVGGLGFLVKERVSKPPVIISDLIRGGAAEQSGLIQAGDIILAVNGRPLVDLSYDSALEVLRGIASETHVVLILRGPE
Chain of IL16_1, Q14005 (Q14005 210-306): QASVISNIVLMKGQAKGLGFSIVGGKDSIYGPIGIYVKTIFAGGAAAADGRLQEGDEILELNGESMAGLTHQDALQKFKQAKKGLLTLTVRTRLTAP

Row | Binder | pKd (PCLO, Q9Y6V0) | pKd (MPP7, Q5T2T1) | pKd (NOS1, P29475) | pKd (SNTG2, Q9NY99) | pKd (SYNJ2BP, P57105) | pKd (MAGI2_5, Q86UL8) | pKd (Inadl_3, Q8NI35) | pKd (SNTA1, Q13424) | pKd (HTRA3, P83110) | pKd (TJP1_2, Q07157) | pKd (Inadl_9, Q8NI35) | pKd (SCRIB_2, Q14160) | pKd (PARD3_3, Q8TEW0) | pKd (MAST1, Q9Y2H9) | pKd (SNTG1, Q9NSN8) | pKd (HTRA4, P83105) | pKd (LNX2_3, Q8N448) | pKd (ARHGEF11, O15085) | pKd (NHERF4_1, Q86UT5-2) | pKd (ARHGEF12, Q9NZN5-2) | also measured
1 | B1 | below the threshold | below the threshold | 3.79 | 3.81 | 4.52 | below the threshold | below the threshold | 3.73 | below the threshold | below the threshold | below the threshold | 3.55 | below the threshold | 4.18 | 3.93 | 3.91 | below the threshold | below the threshold | 3.6 | 3.68 | pKd (SIPA1L2, Q9P2F8): below the threshold; pKd (DLG2_2, Q15700): below the threshold; pKd (Inadl_4, Q8NI35): below the threshold; pKd (IL16_1, Q14005): below the threshold; pKd (PARD3B_1, Q8TEW8): 3.47; pKd (NHERF2_2, Q15599): below the threshold
2 | B2 | below the threshold | below the threshold | below the threshold | below the threshold | below the threshold | below the threshold | below the threshold | 3.57 | below the threshold | below the threshold | below the threshold | 4.12 | below the threshold | 4.55 | 3.56 | below the threshold | below the threshold | below the threshold | 4 | 3.59 | pKd (SIPA1L2, Q9P2F8): below the threshold; pKd (DLG2_2, Q15700): 4.06; pKd (Inadl_4, Q8NI35): below the threshold; pKd (IL16_1, Q14005): below the threshold; pKd (PARD3B_1, Q8TEW8): 3.96; pKd (NHERF2_2, Q15599): 4.66
3 | B3 | below the threshold | below the threshold | below the threshold | below the threshold | 3.59 | 4.36 | below the threshold | below the threshold | 4.24 | below the threshold | below the threshold | below the threshold | below the threshold | below the threshold | below the threshold | below the threshold | below the threshold | 4.21 | 4.35 | 4.65 | pKd (SIPA1L2, Q9P2F8): below the threshold; pKd (DLG2_2, Q15700): below the threshold; pKd (Inadl_4, Q8NI35): below the threshold; pKd (IL16_1, Q14005): below the threshold; pKd (PARD3B_1, Q8TEW8): below the threshold; pKd (NHERF2_2, Q15599): below the threshold
4 | B4 | below the threshold | 4.22 | below the threshold | 4.86 | 5.2 | 3.7 | 4.92 | 4.49 | below the threshold | below the threshold | below the threshold | 4.71 | 3.74 | 4.92 | 4.82 | 3.61 | below the threshold | 3.79 | below the threshold | 4.73 | pKd (SIPA1L2, Q9P2F8): below the threshold; pKd (DLG2_2, Q15700): 3.85; pKd (Inadl_4, Q8NI35): below the threshold; pKd (IL16_1, Q14005): 3.68; pKd (PARD3B_1, Q8TEW8): 3.78; pKd (NHERF2_2, Q15599): 3.83
